Measured values from the FLAb antibody collection (doi:10.7554/elife.23156).

B1: scFv; the commonest letter at each place (parent)
chain 1: EVKLDETGGGLVQPGRPMKLSCVASGFTFSDYWMNWVRQSPEKGLEWVAQIRNKPYNYETYYSDSVKGRFTISRDDSKSSVYLQMNNLRVEDMGIYYCTGSYYGMDYWGQGTSVTVS
chain 2: DVVMTQTPLSLPVSLGDQASISCRSSQSLVHSNGNTYLRWYLQKPGQSPKVLIYKVSNRFSGVPDRFSGSGSGTDFTLKISRVEAEDLGVYFCSQSTHVPWTFGGGTKLEIK

Tests used:
[1] = variants of: B1; test: Kd (Tite-Seq); conditions: with fluorescein; format: scFv 4-4-20, heavy + light
[2] = variants of: B1; test: yeast surface expression (ratio to wild type); higher = more expressed; conditions: format: scFv 4-4-20, heavy + light

| Variant | Kd [1] [nM] | yeast surface expression [2] |
| --- | --- | --- |
| chain 1 S101W G109V | ≥ 10000 | 0.224 |
| chain 1 S101W M105I | ≥ 10000 | 0.442 |
| chain 1 S101W M105Q | ≥ 10000 | 0.517 |
| chain 1 S101W Y102Q W108A | ≥ 10000 | 0.239 |
| chain 1 S101W Y103A | ≥ 10000 | 0.685 |
| chain 1 S101W Y103R G104S | ≥ 10000 | 0.468 |
| chain 1 S101W Y107K | ≥ 10000 | 0.427 |
| chain 1 S101W Y107T | ≥ 10000 | 0.42 |
| chain 1 S101W Y107W | ≥ 10000 | 0.386 |
| chain 1 S101Y | ≥ 10000 | 0.659 |
| chain 1 S101Y D106E | ≥ 10000 | 0.627 |
| chain 1 S101Y D106K | ≥ 10000 | 0.117 |
| chain 1 S101Y G104C | ≥ 10000 | 0.249 |
| chain 1 S101Y G104H | ≥ 10000 | 0.343 |
| chain 1 S101Y G104T | ≥ 10000 | 0.261 |
| chain 1 S101Y G109K | ≥ 10000 | 0.212 |
| chain 1 S101Y M105T | ≥ 10000 | 0.44 |
| chain 1 S101Y W108V | ≥ 10000 | 0.397 |
| chain 1 S101Y Y102G | ≥ 10000 | 0.796 |
| chain 1 S101Y Y102N D106Y | ≥ 10000 | 0.501 |
| chain 1 S101Y Y102P | ≥ 10000 | 0.326 |
| chain 1 S101Y Y102W M105T | ≥ 10000 | 0.507 |
| chain 1 S101Y Y103G | ≥ 10000 | 0.935 |
| chain 1 S101Y Y103N D106L | ≥ 10000 | 0.957 |

| Variant | Kd [1] [nM] | yeast surface expression [2] |
| --- | --- | --- |
| chain 1 S101Y Y107E | ≥ 10000 | 0.625 |
| chain 1 S101Y Y107P | ≥ 10000 | 0.489 |
| chain 1 T28A | 1.58 | 1.01 |
| chain 1 T28A D31C N35A | ≥ 10000 | 0.411 |
| chain 1 T28A D31L | 6.55 | 0.713 |
| chain 1 T28A D31M | 2.39 | 0.955 |
| chain 1 T28A D31W | 6.38 | 0.862 |
| chain 1 T28A F29K | ≥ 10000 | 0.821 |
| chain 1 T28A F29V | 6.38 | 1.02 |
| chain 1 T28A F29Y | 1.5 | 1.06 |
| chain 1 T28A N35C | ≥ 10000 | 0.665 |
| chain 1 T28A N35Y W36V | ≥ 10000 | 0.297 |
| chain 1 T28A W33I | ≥ 10000 | 1.15 |
| chain 1 T28A W33R M34S | ≥ 10000 | 1.12 |
| chain 1 T28A W33R N35I | ≥ 10000 | 0.622 |
| chain 1 T28A W33S | ≥ 10000 | 0.826 |
| chain 1 T28A Y32H | 31.8 | 0.717 |
| chain 1 T28A Y32K | 3550 | 1.02 |
| chain 1 T28A Y32T | ≥ 10000 | 1.2 |
| chain 1 T28A Y32V | ≥ 10000 | 1.32 |
| chain 1 T28C | 1.79 | 0.965 |
| chain 1 T28C D31F M34A | ≥ 10000 | 0.672 |
| chain 1 T28C D31Q | 11.3 | 0.575 |
| chain 1 T28C D31S | 6.38 | 0.694 |

| Variant | Kd [1] [nM] | yeast surface expression [2] |
| --- | --- | --- |
| chain 1 T28C F29P | ≥ 10000 | 0.637 |
| chain 1 T28C M34L W36M | ≥ 10000 | 0.657 |
| chain 1 T28C M34S | ≥ 10000 | 0.611 |
| chain 1 T28C S30I | 424 | 0.651 |
| chain 1 T28C S30K | 1.04 | 0.943 |
| chain 1 T28C V37N | ≥ 10000 | 0.357 |
| chain 1 T28C W33L | ≥ 10000 | 0.742 |
| chain 1 T28C Y32P | ≥ 10000 | 0.707 |
| chain 1 T28C Y32W | ≥ 10000 | 0.802 |
| chain 1 T28D | 1.84 | 1.15 |
| chain 1 T28D D31E V37E | ≥ 10000 | 0.567 |
| chain 1 T28D D31L | 0.804 | 0.935 |
| chain 1 T28D F29T W36L | ≥ 10000 | 0.514 |
| chain 1 T28D F29Y | 8.71 | 0.975 |
| chain 1 T28D M34G | 3940 | 0.865 |
| chain 1 T28D S30P | 1.5 | 1.24 |
| chain 1 T28D V37C | ≤ 0.316 | 0.886 |
| chain 1 T28D V37G | 205 | 1.16 |
| chain 1 T28D V37Q | 0.804 | 0.726 |
| chain 1 T28D W36F | 15.4 | 0.895 |
| chain 1 T28D W36Q | ≥ 10000 | 0.456 |
| chain 1 T28E | 1.7 | 1.04 |
| chain 1 T28E D31K | 1.84 | 0.969 |
| chain 1 T28E F29Q | 8.27 | 1 |

| Variant | Kd [1] [nM] | yeast surface expression [2] |
| --- | --- | --- |
| chain 1 T28E F29Y | 4.68 | 1.01 |
| chain 1 T28E M34R | ≥ 10000 | 0.531 |
| chain 1 T28E M34S | 59.2 | 0.742 |
| chain 1 T28E S30I W33I | ≥ 10000 | 0.628 |
| chain 1 T28E S30V | 1.5 | 0.928 |
| chain 1 T28E S30W Y32D | ≥ 10000 | 0.574 |
| chain 1 T28E V37C | 0.369 | 0.863 |
| chain 1 T28E V37T | 4.93 | 0.693 |
| chain 1 T28E Y32R | 31.8 | 0.928 |
| chain 1 T28E Y32V | ≥ 10000 | 1.14 |
| chain 1 T28F | 4.44 | 0.842 |
| chain 1 T28F D31A | 50.7 | 0.637 |
| chain 1 T28F F29H | ≥ 10000 | 0.638 |
| chain 1 T28F F29R | ≥ 10000 | 0.797 |
| chain 1 T28F F29W V37K | ≥ 10000 | 0.532 |
| chain 1 T28F M34A | 18.9 | 0.566 |
| chain 1 T28F N35C | ≥ 10000 | 0.644 |
| chain 1 T28F S30T | 4.68 | 0.857 |
| chain 1 T28F V37C | 1.58 | 0.588 |
| chain 1 T28F V37P | 0.589 | 0.417 |
| chain 1 T28F W36H | ≥ 10000 | 0.598 |
| chain 1 T28G | 18.9 | 0.994 |
| chain 1 T28G D31C | ≥ 10000 | 0.472 |
| chain 1 T28G F29P | ≥ 10000 | 0.769 |

| Variant | Kd [1] [nM] | yeast surface expression [2] |
| --- | --- | --- |
| chain 1 T28G F29R W36P | ≥ 10000 | 0.146 |
| chain 1 T28G F29R Y32K | ≥ 10000 | 0.507 |
| chain 1 T28G M34P N35T | ≥ 10000 | 0.318 |
| chain 1 T28G N35C | ≥ 10000 | 0.586 |
| chain 1 T28G V37P | 5.19 | 0.581 |
| chain 1 T28G W36N | ≥ 10000 | 0.456 |
| chain 1 T28G Y32K | 7330 | 0.795 |
| chain 1 T28G Y32M | ≥ 10000 | 1.24 |
| chain 1 T28H | 1.58 | 0.965 |
| chain 1 T28H D31K | 6.06 | 0.589 |
| chain 1 T28H M34H V37R | ≥ 10000 | 2.76 |
| chain 1 T28H S30D | 1.84 | 0.948 |
| chain 1 T28H S30G | 1.22 | 1.04 |
| chain 1 T28H S30N Y32M | 69.2 | 1.01 |
| chain 1 T28H V37L | 3430 | 0.691 |
| chain 1 T28H W36G | ≥ 10000 | 2.76 |
| chain 1 T28H W36L | ≥ 10000 | 0.454 |
| chain 1 T28H Y32I | ≥ 10000 | 0.92 |
| chain 1 T28I | 0.504 | 1.07 |
| chain 1 T28I D31A | 3.09 | 0.566 |
